# Measured values published in patent US6964763.
# Target: Recombinant baculovirus-expressed HIV-1 gp120 derived from the LAV isolate (HIV-1 isolate LAV (LAI)), P03377
# Test: competition: 125I-CD4 on immobilized gp120, 10-fold molar excess of peptide; isolate (MN or LAI) not stated
binder,measurement,value
CSVTCG (modifications not checked) [CSVTCG peptide derived from TSP1 properdin-like Type 1 repeat],% inhibition,53%
